# Measurements taken from publication PMC7949155.
# Tests used:
# Assay in all cases: SEC-MALS; size-exclusion chromatography (Superdex 200) in 10-mM Tris, pH 7.5, 150-mM NaCl with Dawn Heleos II light scattering and Optilab T-rEX dRI detectors
# MlghB (C. jejuni) = target: MlghB (C. jejuni)
# MlghC (C. jejuni) = target: MlghC (C. jejuni)
# DdahC (C. jejuni) = target: DdahC (C. jejuni)
# DdahB (C. jejuni) = target: DdahB (C. jejuni)
substance,measurement,setting,value
MlghB (enzyme),stoichiometry N,MlghB (C. jejuni),2
MlghC (enzyme),stoichiometry N,MlghC (C. jejuni),2
DdahC (enzyme),stoichiometry N,DdahC (C. jejuni),2
DdahB (enzyme),stoichiometry N,DdahB (C. jejuni),2
